Measured values from patent publication US20160002338A1 (Hoffmann-La Roche, published 2016).

What was measured:
[1] = target: T1, HER3 ECD binding epitope peptide VYNKLTFQLEP (human); test: CelluSpots peptide array, 1 µg/mL antibody
T1 construct: the spotted peptides were longer
T1 peptide: VYNKLTFQLEP

[2] = target: T2, HER4 ECD binding epitope peptide VYNPTTFQLE (human); test: CelluSpots peptide array, 1 µg/mL antibody
T2 construct: the spotted peptides were longer
T2 peptide: VYNPTTFQLE

[3] = target: T3, HER3 ECD-HRG complex (human, UniProt P21860 20-643); test: SPR Biacore 3000, 37 C
T3 construct: also called Heregulin/Her-3 ECD

[4] = target: T4, HER4 ECD-HRG complex (human, UniProt Q15303 26-651); test: SPR Biacore 3000, 37 C
T4 construct: HER4 ECD preincubated with a 5-fold molar excess of Heregulin; also called HER-4-ECD-RG
T4 sequence 1: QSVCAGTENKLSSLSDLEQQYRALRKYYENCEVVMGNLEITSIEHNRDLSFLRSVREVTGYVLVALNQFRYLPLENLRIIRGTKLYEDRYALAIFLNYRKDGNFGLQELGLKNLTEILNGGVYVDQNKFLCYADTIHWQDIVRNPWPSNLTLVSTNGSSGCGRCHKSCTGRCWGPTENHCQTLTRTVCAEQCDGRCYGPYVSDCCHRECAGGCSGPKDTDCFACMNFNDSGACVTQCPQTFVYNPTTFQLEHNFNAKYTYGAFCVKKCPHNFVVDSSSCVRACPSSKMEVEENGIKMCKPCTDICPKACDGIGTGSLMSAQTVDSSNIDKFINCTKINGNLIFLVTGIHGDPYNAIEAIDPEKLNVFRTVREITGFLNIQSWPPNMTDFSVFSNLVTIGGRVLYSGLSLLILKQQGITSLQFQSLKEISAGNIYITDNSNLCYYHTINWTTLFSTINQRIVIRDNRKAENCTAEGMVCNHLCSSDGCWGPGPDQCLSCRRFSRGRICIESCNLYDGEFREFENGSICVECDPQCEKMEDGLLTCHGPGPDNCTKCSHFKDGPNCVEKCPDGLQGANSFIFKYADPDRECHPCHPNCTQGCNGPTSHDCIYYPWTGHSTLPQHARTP
T4 sequence 2: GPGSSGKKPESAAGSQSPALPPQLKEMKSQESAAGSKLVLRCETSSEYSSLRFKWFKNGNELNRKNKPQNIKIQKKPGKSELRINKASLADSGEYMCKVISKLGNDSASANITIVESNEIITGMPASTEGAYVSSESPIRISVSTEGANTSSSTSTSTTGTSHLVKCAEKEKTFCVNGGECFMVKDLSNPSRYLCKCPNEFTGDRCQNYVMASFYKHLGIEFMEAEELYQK

[5] = target: T5, human recombinant HER3 ECD (human, UniProt P21860 20-643); test: SPR Biacore 3000, 37 C
T5 construct: 68 kDa; also called human-Her3-ECD; full length Her3 ECD

[6] = target: T3, HER3 ECD-HRG complex; test: SPR Biacore T100, antibody captured, 25 C
Experimental: (§1) A CM5 series sensor was mounted into the system and was normalized in HBS-ET buffer (10 mM HEPES pH 7.4, 150 mM NaCl, 3 mM EDTA, 0.005% w/v Tween 20) according to the manufacturer's instructions. The sample buffer was the system buffer supplemented with 1 mg/ml CMD (Carboxymethyldextran, Sigma #86524). The system operated at 25° C. 6500 RU RAM-Fcγ (relative units of Fcγ-fragment RamIgG, GE Healthcare) were immobilized according to the manufacturer's instructions using EDC/NHS chemistry on all four flow cells. The sensor was deactivated using 1M ethanolamine.
(§2) Analytes in solution were injected at different concentration steps of 0 nM, 1.1 nM, 3.7 nM, 11.1 nM, 33.1 nM and 90 nM for 3.5 min. The dissociation was monitored for 15 min. Where possible, kinetic signatures were evaluated according to a Langmuir fit.

[7] = target: T6, human recombinant HER2 ECD (human, UniProt P04626 23-652); test: SPR Biacore T100, antibody captured, 25 C
T6 construct: 69.6 kDa
Experimental: as §1, §2

[8] = target: T7, human recombinant HER4 ECD (human, UniProt Q15303 26-651); test: SPR Biacore T100, antibody captured, 25 C
T7 construct: also called full length Her4 ECD
T7 sequence: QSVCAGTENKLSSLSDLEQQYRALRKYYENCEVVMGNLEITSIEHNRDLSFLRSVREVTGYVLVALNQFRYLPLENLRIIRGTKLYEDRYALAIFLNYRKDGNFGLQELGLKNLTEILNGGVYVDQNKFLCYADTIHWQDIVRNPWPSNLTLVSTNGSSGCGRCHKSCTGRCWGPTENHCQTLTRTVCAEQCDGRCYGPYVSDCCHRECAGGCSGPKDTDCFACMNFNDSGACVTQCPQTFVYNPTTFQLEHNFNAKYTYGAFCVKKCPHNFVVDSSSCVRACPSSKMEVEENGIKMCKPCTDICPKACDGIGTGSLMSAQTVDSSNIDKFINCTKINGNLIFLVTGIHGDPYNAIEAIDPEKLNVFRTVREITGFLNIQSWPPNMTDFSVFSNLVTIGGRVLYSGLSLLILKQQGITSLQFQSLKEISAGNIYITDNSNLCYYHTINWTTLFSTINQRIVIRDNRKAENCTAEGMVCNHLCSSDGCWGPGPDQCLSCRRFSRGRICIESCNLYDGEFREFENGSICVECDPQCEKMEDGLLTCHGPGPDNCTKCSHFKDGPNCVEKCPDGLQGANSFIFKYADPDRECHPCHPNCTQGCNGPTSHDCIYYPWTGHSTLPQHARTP
Experimental: as §1, §2

[9] = target: T8, human Heregulin fragment (HRG) (human); test: SPR Biacore T100, antibody captured, 25 C
T8 construct: also called Heregulin beta (HRG)
T8 chain: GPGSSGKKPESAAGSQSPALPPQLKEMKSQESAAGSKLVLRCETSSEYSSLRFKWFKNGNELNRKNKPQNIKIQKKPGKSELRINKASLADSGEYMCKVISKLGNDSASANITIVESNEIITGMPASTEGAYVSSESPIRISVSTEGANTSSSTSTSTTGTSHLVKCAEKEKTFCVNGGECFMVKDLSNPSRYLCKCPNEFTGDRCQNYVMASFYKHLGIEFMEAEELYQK
Experimental: as §1, §2

[10] = target: T4, HER4 ECD-HRG complex; test: SPR Biacore T100, antibody captured, 25 C
Experimental: as §1, §2

[11] = target: T5, human recombinant HER3 ECD; test: SPR Biacore T100, antibody captured, 25 C
Experimental: as §1, §2

T5 sequence (P21860 20-643): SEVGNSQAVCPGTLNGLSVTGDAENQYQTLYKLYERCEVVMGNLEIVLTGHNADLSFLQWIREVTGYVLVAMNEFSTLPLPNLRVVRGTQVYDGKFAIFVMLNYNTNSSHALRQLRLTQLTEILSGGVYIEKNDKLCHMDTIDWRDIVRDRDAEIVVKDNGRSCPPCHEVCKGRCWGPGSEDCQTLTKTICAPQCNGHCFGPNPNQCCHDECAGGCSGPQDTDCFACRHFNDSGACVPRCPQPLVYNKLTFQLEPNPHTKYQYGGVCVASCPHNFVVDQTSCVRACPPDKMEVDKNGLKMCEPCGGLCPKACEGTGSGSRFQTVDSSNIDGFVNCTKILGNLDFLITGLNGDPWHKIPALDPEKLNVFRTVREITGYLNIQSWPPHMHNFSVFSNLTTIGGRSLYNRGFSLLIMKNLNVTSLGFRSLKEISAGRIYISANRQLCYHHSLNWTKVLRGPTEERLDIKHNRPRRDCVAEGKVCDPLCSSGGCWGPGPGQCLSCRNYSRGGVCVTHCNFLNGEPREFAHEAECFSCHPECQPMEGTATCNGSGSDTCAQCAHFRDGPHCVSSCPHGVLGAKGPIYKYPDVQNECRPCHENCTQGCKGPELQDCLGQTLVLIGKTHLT
T3 sequence (P21860 20-643 limits assumed, one chain of several): as the sequence (P21860 20-643) above

B1: anti-HER3/HER4 antibody M-05-74 (antibody, V domains shown)
VH: QVQLQQSGAELAKPGASVKMSCKTSGYTLTDYWIHWVKQRPGQGLEWIGYINPYTGYTESNQKFKDKATLTADKSSNTAYIQLSSLTSEDSAVYYCARPYYYGDYWGQGTTLTVSS
VL: QIVLTQSPAIMSASPGERVTITCSASSSVSYMHWFQQKPGTSPKLLIYSTSNLASGVPARFSGSGSGTSYSLTISRMEAEDAATYYCQQRSSYPFTFGSGTKLEIK
notes: murine monoclonal antibody from hybridoma (supernatant or purified); also called M-074; M-5-74
binding result [1]: binds
binding result [2]: binds
Molar Ratio MR [3]: 0.7
Molar Ratio MR [4]: 0.9
Molar Ratio MR [5]: 0.6
Binding Late BL [6]: 160 RU
Molar Ratio MR [6]: 0.6
ratio MR (+Heregulin)/MR (-Heregulin) [6]: 3
ratio ka (Her3-ECD-HRG)/ka (Her3-ECD) [6]: 4.85
binding result [7]: no binding (tested: 90 nM)
Binding Late BL [8]: 27 RU
Molar Ratio MR [8]: 0.1
binding result [9]: no binding (tested: 90 nM)
Binding Late BL [10]: 349 RU
Molar Ratio MR [10]: 0.6
ratio MR (+Heregulin)/MR (-Heregulin) [10]: 6
ratio ka (Her4-ECD-HRG)/ka (Her4-ECD) [10]: 23.9
Binding Late BL [11]: 70 RU
Molar Ratio MR [11]: 0.2
